Measurements as given in patent publication US20220372577, “ANALYTE DETECTION METHOD” (IMPERIAL COLLEGE OF SCIENCE, TECHNOLOGY AND MEDICINE, published 2022).

Biological target: alpha-thrombin (UniProt P00734;P00734 P00734:328-363,P00734:364-622)
Assay: binding in 5% human serum, 0.1-100 nM thrombin, 30 pM MB-Carrier; comparable to 0.1 M KCl

AGGTCGCCGCCCTCCAACGGTTGGTGTGGTTGG (structured_DNA, internal FAM on T13; 3' DABCYL) [TBA-embedded molecular beacon on lambda-DNA carrier (MB-Carrier)]: binds.
